# Substitutions are numbered along the chain they refer to.
# T1: 14mer peptide PARLLPNAIGRGKW (Homo sapiens)
# T1 construct: stretch of loop 2 of sclerostin; also called base peptide; loop 2 mimicking peptide; source: synthetic peptide, on solid support (peptide array)
# T1 chain: PARLLPNAIGRGKW
# T2: 14mer peptide PARLLPNAIGRGKW, equivalent to residues Pro86 to Trp99 of sclerostin loop 2 (Homo sapiens)
# T2 construct: loop 2 of sclerostin; also called first peptide; base peptide; source: synthetic peptide, synthesized on solid support (array)
# T2 chain: PARLLPNAIGRGKW
# T3: 14mer peptide NAIGRGKWWRPSGP, equivalent to residues Asn92 to Pro105 of sclerostin loop 2 (Homo sapiens)
# T3 construct: loop 2 of sclerostin; also called second peptide; source: synthetic peptide, synthesized on solid support (array)
# T3 chain: NAIGRGKWWRPSGP
# B1: Fab AbD09097 (Fab, V domains shown)
# VH: QVQLVESGGGLVQPGGSLRLSCAASGFTFTNYYMHWVRQAPGKGLEWVSTIAYDGSSTYYADSVKGRFTISRDNSKNTLYLQMNSLRAEDTAVYYCARWFTDDIWGQGTLVTVSS
# VL: not shown
# notes: format Fab-Thr-MH with a thrombin site (-FLVPRGS-) between CH1 and the tags; kappa light chain; From the HuCAL GOLD phage library, panned on murine sclerostin; also called ancestor Fab AbD09097; HCA230Z (as full-length IgG, AbD Serotec); source: E. coli, periplasmic expression, purified via hexahistidine-tag
# B2: Fab AbD12683 (Fab, V domains shown)
# VH: B1 VH
# VL: not shown
# notes: carries a tyrosine at position 3 of CDR3L; source: E. coli, periplasmic expression, purified via hexahistidine-tag
# B3: Fab AbD12682 (Fab, V domains shown)
# VH: B1 VH
# VL: not shown
# notes: consensus motif -QQDXXFPI- (X: His, Glu, Val or Ser); source: E. coli, periplasmic expression, purified via hexahistidine-tag
# B4: Fab AbD12685 (Fab, V domains shown)
# VH: B1 VH
# VL: DIVLTQSPATLSLSPGERATLSCRASQSISSNELAWYQQKPGQAPRLLIYDTSNRATGVPARFSGSGSGTDFTLTISSLEPEDFAVYYCQQDYTFPLTFGQGTKVEIK
# notes: source: E. coli, periplasmic expression, purified via hexahistidine-tag
# B5: Fab AbD12681 (Fab, V domains shown)
# VH: B1 VH
# VL: B4 VL with Y93H, T94E, L97I
# notes: as for B3
# B6: Fab AbD12684 (Fab, V domains shown)
# VH: B1 VH
# VL: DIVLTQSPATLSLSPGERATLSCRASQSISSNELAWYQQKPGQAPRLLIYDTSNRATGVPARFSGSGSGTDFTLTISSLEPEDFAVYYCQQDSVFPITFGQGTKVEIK
# notes: as for B3
# B7: Fab AbD12687 (Fab, V domains shown)
# VH: B1 VH
# VL: B4 VL with Y93V, T94V, F95M, L97I
# notes: as for B4
# B8: Fab AbD09097 (Fab, V domains shown)
# VH: B1 VH
# VL: not shown
# notes: also called ancestor Fab; source: E. coli, periplasmic expression, purified by the hexahistidine-tag
# B9: Fab AbD12682 (Fab, V domains shown)
# VH: B1 VH
# VL: not shown
# notes: as the light chain of Dm1 up to the Cys before CDR3L; as the light chain of Dm1 from Thr97 (Kabat) to the end; heavy chain extension as in Dm1; source: E. coli, periplasmic expression, purified by the hexahistidine-tag
# B10: Fab AbD12683 (Fab, V domains shown)
# VH: B1 VH
# VL: not shown
# notes: as for B9
# Target: T4, murine sclerostin (Mus musculus, UniProt Q99P68)
# Assay: cell-based or functional assay
# Details: not given
# T4 sequence (Q99P68 24-211): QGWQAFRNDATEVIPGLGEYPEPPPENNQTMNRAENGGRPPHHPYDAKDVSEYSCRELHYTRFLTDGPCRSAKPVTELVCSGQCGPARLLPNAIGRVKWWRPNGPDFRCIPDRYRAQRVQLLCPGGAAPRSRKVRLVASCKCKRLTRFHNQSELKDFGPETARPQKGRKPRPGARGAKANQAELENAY
row,Binder,Wnt1 reporter gene assay with 20 nM murine sclerostin and 0-670 nM AbD09097: EC50 of the rescue of Wnt1 activity [nM]
1,B1,46

# Target: T5, human sclerostin (Homo sapiens, UniProt Q9BQB4)
# Assay: cell-based or functional assay
# Details: not given
# T5 sequence (Q9BQB4 24-213): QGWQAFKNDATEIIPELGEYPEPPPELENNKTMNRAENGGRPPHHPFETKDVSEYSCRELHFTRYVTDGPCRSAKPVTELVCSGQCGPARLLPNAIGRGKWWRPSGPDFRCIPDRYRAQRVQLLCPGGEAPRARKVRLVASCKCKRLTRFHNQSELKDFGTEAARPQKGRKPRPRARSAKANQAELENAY
row,Binder,Wnt1 reporter gene assay with 20 nM human sclerostin and 0-670 nM AbD09097: EC50 of the rescue of Wnt1 activity [nM]
1,B1,197

# Target: T4, murine sclerostin
# Assay: cell-based or functional assay
# Details: not given
# Remark: another data set of the same source
row,Binder,"Wnt1 reporter gene assay (HEK293TSA M50, luciferase): fold change of the IC50 of murine sclerostin for inhibition of Wnt1 activity with 500 nM Fab; the blocked pair is sclerostin and LRP5/6 [fold]"
1,B1,12.6

# Target: T5, human sclerostin
# Assay: cell-based or functional assay
# Details: not given
# Remark: another data set of the same source
row,Binder,"Wnt1 reporter gene assay (HEK293TSA M50, luciferase): fold change of the IC50 of human sclerostin for inhibition of Wnt1 activity with 500 nM Fab; the blocked pair is sclerostin and LRP5/6 [fold]"
1,B1,6.4

# Target: T1, 14mer peptide PARLLPNAIGRGKW
# Assay: peptide or protein array; peptides synthesised on solid support (overlapping, replacement and truncation libraries); Fab detected by a modified ELISA with goat anti-human peroxidase-coupled secondary antibody
# Details: both partners purified
row,Binder,binding result
1,B2,binds
2,B3,binds
3,B1,binds

# Target: T4, murine sclerostin
# Assay: ELISA; plates coated with 5 µg/ml protein in PBS; Fab at 2 µg/ml, 1 h at room temperature; detection with anti-human Fab-alkaline phosphatase and AttoPhos; signal/noise over the background of BSA, N1-CD33-His6 and GST
# Details: both partners purified
row,Binder,ELISA signal/noise ratio (fold background)
1,B2,28
2,B4,46
3,B3,44
4,B1,39
5,B5,26
6,B6,53
7,B7,50

# Target: T5, human sclerostin
# Assay: as above
# Details: both partners purified
row,Binder,ELISA signal/noise ratio (fold background)
1,B2,64
2,B4,61
3,B3,57
4,B1,34
5,B5,44
6,B6,73
7,B7,57

# Target: T2, 14mer peptide PARLLPNAIGRGKW, …
# Assay: peptide or protein array; truncation array: all truncated variants (3 to 14mer) of two 14mer loop 2 peptides synthesized on solid support; Fab added, modified ELISA with goat anti-human peroxidase coupled secondary antibody
# Details: both partners purified
row,Binder,binding result
1,B8,binds
2,B9,binds
3,B10,binds

# Target: T3, 14mer peptide NAIGRGKWWRPSGP, …
# Assay: as above
# Details: both partners purified
row,Binder,binding result
1,B8,binds

# Target: T4, murine sclerostin
# Assay: SPR; ProteOn, 25°C, HBS150T (10 mM HEPES, 150 mM NaCl, pH 7.5, 0.005% Tween 20); sclerostin proteins or variants amine-coupled to about 600 RU on a GLC chip; Fabs as analytes at 100, 75, 50, 25, 12.5 and 6.25 nM (one-shot kinetics); 1:1 Langmuir model
# Details: both partners purified
Binder,Kd [nM],koff [s⁻¹],kon [M⁻¹ s⁻¹]
B1,46,0.00018,4400

# Target: T5, human sclerostin
# Assay: as above
# Details: both partners purified
Binder,Kd [nM],koff [s⁻¹],kon [M⁻¹ s⁻¹]
B1,260,0.0016,6600

# Target: T4, murine sclerostin
# Assay: as above
# Details: both partners purified
# Remark: another data set of the same source
Binder,Kd [nM],koff [s⁻¹],kon [M⁻¹ s⁻¹]
B2,< 1,< 1e-06,3400
B4,145,0.00029,13000
B3,13,0.00025,22000
B5,35,0.00054,17000
B6,15,0.00025,18400
B7,120,0.0017,16000

# Target: T5, human sclerostin
# Assay: as above
# Details: both partners purified
# Remark: another data set of the same source
Binder,Kd [nM],koff [s⁻¹],kon [M⁻¹ s⁻¹]
B2,53,0.00033,6400
B4,56,0.001,20400
B3,23,0.00066,32000
B5,66,0.0016,27400
B6,32,0.00073,25300
B7,228,0.0047,23300
